How the values were obtained:
[1] = target: canine E-cadherin ectodomain K14E mutant (canine); assay: single-molecule atomic force microscopy; as −ab, but tip and coverslip incubated with 19A11 Fab and 150 nM free 19A11 Fab in the measurement buffer (+ab); pulling velocity 1 µm/s; pH 7.5, 10 mM Tris-HCl, 100 mM NaCl, 10 mM KCl, 2.5 mM CaCl2
[2] = target: canine E-cadherin ectodomain K14E mutant (canine); assay: single-molecule atomic force microscopy; biotinylated canine Ecad on streptavidin on PEG tethers on both AFM tip and coverslip; without 19A11 (−ab); pulling velocity 1 µm/s; pH 7.5, 10 mM Tris-HCl, 100 mM NaCl, 10 mM KCl, 2.5 mM CaCl2

canine E-cadherin ectodomain K14E mutant (domain or fragment)
unbinding force (peak of a single Gaussian), with 150 nM 19A11 [1]: 40.3 pN
unbinding force (peak of a single Gaussian), without 19A11 [2]: 41.2 pN

Source: publication PMC9371698
